Source: PMC10776578, “Epstein-Barr virus-driven B cell lymphoma mediated by a direct LMP1-TRAF6 complex” (Nature Communications, 2024)
Residue numbers refer to the chain shown, from its start.

Tests used:
[1] = target: T1, GST-CD40 / His-TRAF6_310-522 (Homo sapiens, UniProt Q9Y4K3); assay: AlphaScreen PPI inhibition, CD40-TRAF6; format: binding; conditions: Figure 8 d; best-fit values; 0,03-30 µM peptide
T1 construct: AlphaScreen PPI experiments with GST-CD40 and His-TRAF6_310-522; made in house; host or cells: E. coli (BL21 Codon Plus RIPL for the His-TRAF protein; DH5α or BL21 Codon Plus RIPL for the GST protein)
Description: (§1) AlphaScreen experiments were performed in 96- or 384-well plates (Perkin Elmer, OptiPlate). In both assay formats, His-TRAF and GST-LMP1, GST-CD40, or GST-RANK proteins were incubated together in 40 µL of PBS (protein concentrations were calculated to the final reaction volume of 60 µL) supplemented with 0.5% BSA (Sigma, #A7030) and 0.1% Tween-20 (AppliChem, #A4974), for 1 h at room temperature (RT). If not indicated otherwise, standard protein concentrations were 300 nM for His-TRAF proteins and 100 nM for GST-LMP1 proteins. Ni-NTA-acceptor (Perkin Elmer, #6760619 C) and GST-acceptor (Perkin Elmer, # 6765300) beads were added each to a final concentration of 1–4 µg per mL in a final reaction volume of 60 µL and incubated for 1 h at RT in the dark. AlphaScreen PPI signals were measured in a CLARIOstar reader (BMG Labtech GmbH).
(§2) All statistical analyses were performed with Prism v10.1.0 software (GraphPad Software Inc.). Two-way ANOVA was performed on experiments with two factors of variance (Figs. 1e and 3a). […] For KD determination, the data from each experiment were cleaned for the hook effect (signal depletion by oversaturation of the beads) and analyzed using the equation one site-specific binding with hill slope (Figs. 1f–i, and Supplementary Fig. 1f). The IC50 was determined using the log(inhibitor) vs. response – variable slope (four parameters) equation (Fig. 8b and d). […]

[2] = target: T2, GST-LMP1_181-386 / His-TRAF6_310-522 (Homo sapiens, UniProt Q9Y4K3); assay: AlphaScreen PPI inhibition, LMP1-TRAF6; format: binding
T2 construct: recombinant GST-LMP1_181-386 and His-TRAF6_310-522; made in house; host or cells: E. coli (BL21 Codon Plus RIPL for the His-TRAF protein; DH5α or BL21 Codon Plus RIPL for the GST protein)
Description: as §1, §2

TRAF6_346-504 = assay: NMR spectroscopy (1H,15N HSQC) of TRAF6 with LMP1 peptide; format: binding, human; conditions: 90 μM 15N-TRAF6, five-fold excess peptide, PBS pH 7.4, 10% D2O, 298 K
Description: For NMR, a His-SUMO-TRAF6 fusion construct was expressed in E. coli Rosetta2 DE3 cells from pET-hSu-TRAF6_346-504. The recombinant protein was uniformly labeled with ^15N by growing expression cultures in ^15N-autoinduction medium. TRAF6 protein was purified from cell lysate via IMAC using a Ni-NTA column. After elution, the protein was transferred to 100 mM Tris-HCl pH 8.0, 300 mM NaCl, 20 mM imidazole, and 5 mM β-mercaptoethanol. SUMO-hydrolase dtUD1 was added (ratio 1:50) and incubated overnight at 4 °C. After cleavage, the protein was subjected to a second Ni-NTA affinity chromatography step and then further purified via size-exclusion chromatography using a Superdex 75 10/300 GL column (Äkta system, GE Healthcare). SEC buffer was PBS ([…], 2.7 mM KCl, 10 mM Na2HPO4, 1.8 mM KH2PO4 pH 7.4, 5 mM β-ME) and was subsequently used in the following NMR experiments. NMR spectra were recorded at 298 K using a Bruker Avance 600 spectrometer with a QCI cryogenic probe and topspin v.3.2 software (Bruker BioSpin). Spectra were processed using NMRDraw v.8.7 of NMRPipe software[86] and analyzed with the CCPN Analysis software v.2.4.1[87]. NMR titrations were performed by recording ^1H,^15N HSQC experiments. For titrations of TRAF6, samples of 90 μM ^15N-labeled TRAF6 in PBS pH 7.4, 10% D2O, and 5 mM β-ME were used. […]

His-TRAF6_(310-522) [3] = target: T3, His-TRAF6_(310-522) (human, UniProt Q9Y4K3 310-522); assay: AlphaScreen or HTRF; AlphaScreen PPI assay: His-TRAF and GST-LMP1, GST-CD40 or GST-RANK in PBS with 0.5% BSA and 0.1% Tween-20, 1 h at RT; standard 300 nM His-TRAF and 100 nM GST protein if not indicated otherwise; for KD His-TRAF6 at different concentrations, fit one site-specific binding with hill slope; conditions: both partners purified
T3 construct: also called His-T6; recombinant TRAF6 wild-type; source: E. coli BL21 Codon Plus RIPL, purified (Ni-NTA)
T3 sequence: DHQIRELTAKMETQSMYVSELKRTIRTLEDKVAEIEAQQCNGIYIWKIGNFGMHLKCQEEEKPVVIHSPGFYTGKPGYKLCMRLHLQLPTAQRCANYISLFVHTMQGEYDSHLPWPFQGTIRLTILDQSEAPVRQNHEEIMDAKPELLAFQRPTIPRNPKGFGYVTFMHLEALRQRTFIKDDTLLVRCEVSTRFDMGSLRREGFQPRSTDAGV

[4] = target: T4, His-TRAF6_(310-522) R392A (human, UniProt Q9Y4K3 310-522, R392A); assay: as above; conditions: both partners purified
T4 construct: also called TRAF6 R392A; source: E. coli BL21 Codon Plus RIPL, purified (Ni-NTA)
T4 sequence: T3 sequence with R83A

[5] = target: T5, His-TRAF6_(310-522) K469A (human, UniProt Q9Y4K3 310-522, K469A); assay: as above; conditions: both partners purified
T5 construct: also called TRAF6 K469A; source: E. coli BL21 Codon Plus RIPL, purified (Ni-NTA)
T5 sequence: T3 sequence with K160A

His-TRAF6_(310-522) [6] = target: T3, His-TRAF6_(310-522); assay: AlphaScreen or HTRF; AlphaScreen PPI assay in competition: GST-LMP1 or GST-CD40 with His-TRAF6 (dose-response of TRAF6 inhibitor or control peptide, 4-parameter fit) or GST-LMP1 with His-TRAF2 (30 µM peptide); conditions: both partners purified
His-TRAF6_(310-522) [7] = target: T6, His-TRAF6_(310-522) (human, UniProt Q9Y4K3 310-522); assay: competition with GST-CD40(216-277)
T6 chain: T3 sequence

TRAF6_(346-504) for NMR = target: T7, TRAF6_(346-504) for NMR (human, UniProt Q9Y4K3 346-504, uniformly labeled with 15N); assay: NMR titration; conditions: both partners purified
T7 construct: also called 15N-labeled TRAF6; source: E. coli Rosetta2 DE3, purified (Ni-NTA, SUMO cleavage, second Ni-NTA, SEC)
T7 sequence: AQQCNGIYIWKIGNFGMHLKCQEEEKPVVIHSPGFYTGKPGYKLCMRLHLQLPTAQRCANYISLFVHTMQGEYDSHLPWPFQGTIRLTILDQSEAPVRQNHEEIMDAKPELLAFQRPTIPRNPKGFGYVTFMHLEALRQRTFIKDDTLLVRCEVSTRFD

DRQIKIWFQNRRMKWKK [control peptide]
inhibition of CD40-TRAF6 interaction (in words) [1]: no inhibition | inhibition of LMP1-TRAF6 interaction (in words) [2]: inactive

G378PVQLSYYD [LMP1 peptide G378PVQLSYYD, LMP1 peptide used in NMR titration]
NMR signals of TRAF6 upon peptide addition (in words) (TRAF6_346-504): the signals corresponding to some of the TRAF6 residues were broadened beyond detection

B1: GST-CD40_(216-277) (domain or fragment)
chain: KKVAKKPTNKAPHPKQEPQEINFPDDLPGSNTAAPVQETLHGCQPVTQEDGKESRISVQERQ
notes: source: E. coli DH5α or BL21 Codon Plus RIPL, purified (glutathione Sepharose 4B)
Kd (His-TRAF6_(310-522) [3]): 17.1 nM | binding result [4]: binds | binding result [5]: binds

B2: TRAF6 inhibitor peptide DRQIKIWFQNRRMKWKK-RKIPTEDEY (peptide)
peptide: DRQIKIWFQNRRMKWKKRKIPTEDEY
notes: also called RANK-derived peptide; source: bought: Novus Biologicals NBP2-26506
IC50 (His-TRAF6_(310-522) [6]): 177 nM | IC50 (His-TRAF6_(310-522) [7]): 546 nM

GPVQLSYYD (source: unlabeled peptide (PSL)) [LMP1 peptide G378PVQLSYYD]
binding result (TRAF6_(346-504) for NMR): binds
